± gives the uncertainty stated by the source.
Test: protein stability index of a GFP-peptide fusion (yeast GPS) (PSI 1-4); higher = more stable; sorted into four equal gates, so the index is relative within each strain
Summary of the method: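 Each library plasmid carries Cherry plus GFP with a tiled 17-residue yeast protein peptide fused downstream, and the pooled library was carried in yeast. Mid-log cultures in leucine-free medium were sorted into four equal gates by GFP/Cherry ratio. Reads from Illumina sequencing of PCR-amplified plasmids from each gate were assigned to strains by barcodes. Per peptide, the protein stability index was computed as the summed products of gate read frequency and gate number.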

Sequence | protein stability index (doa10∆) | protein stability index (pdr5∆) | protein stability index (san1∆) | protein stability index (ubr1∆)
EVFSRPEWMILTCLPVP [RPO21] | 1.42 ± 0.12 | 1.48 ± 0.12 | 1.51 ± 0.14 | 1.67 ± 0.063
EVILVDPQHKAIRRDAR [RPL15A] | 2.87 ± 0.088 | 3.15 ± 0.13 | 2.78 ± 0.28 | 2.97 ± 0.17
EVINKEIENATKDIFPL [RPS1A] | 3.25 ± 0.29 | 2.74 ± 0.19 | 2.9 ± 0.13 | 3.16 ± 0.082
EVNKSELYLTAELSEIW [SIR3] |  | 2.86 ± 0.29 |  | 3.24 ± 0.21
EVTFKNANIFSSVKCFG [FAS1] | 2.92 ± 0.046 | 2.81 ± 0.058 | 2.84 ± 0.063 | 3.06 ± 0.052
EWQDIIHQREQELQIKR [CSE2] |  | 3.5 ± 0.17 | 3.29 ± 0.26 | 3.13 ± 0.23
EWYLSHLCSGILSSVNR [SRB8] | 1.41 ± 0.076 | 1.55 ± 0.079 | 1.25 ± 0.095 | 1.63 ± 0.044
EYALPKTYNKLHYCVSC [RPS26A] | 1.24 ± 0.069 | 1.42 ± 0.055 | 1.34 ± 0.12 | 1.41 ± 0.04
EYDTPALFFDPSLNPIP [PRP8] | 2.82 ± 0.056 | 2.87 ± 0.036 | 2.65 ± 0.048 | 2.69 ± 0.036
EYKLRSLTLSFIRHVAK [ECM29] | 2.49 ± 0.068 | 2.54 ± 0.062 | 2.77 ± 0.049 | 2.81 ± 0.046
EYYVMMDFANLWVFQAF [SRB8] | 2.37 ± 0.098 | 2.37 ± 0.082 | 2.63 ± 0.093 | 2.64 ± 0.057
FAKEHNATVNLAMEAIL [YJR042W/NUP85] | 2.93 ± 0.094 | 2.66 ± 0.1 | 2.71 ± 0.098 | 2.63 ± 0.092
FARLSRLLSLWEVFQMA [RPC82] | 1.9 ± 0.11 | 1.97 ± 0.096 | 2.86 ± 0.13 | 2.08 ± 0.051
FASIPVSNSISRLGEEN [SNU114] | 2.31 ± 0.058 | 2.63 ± 0.051 | 1.81 ± 0.081 | 2.48 ± 0.059
FCPGEIVGKSNVLVTMP [YMR129W/POM152] | 2.69 ± 0.12 | 2.3 ± 0.1 | 1.82 ± 0.27 | 2.51 ± 0.085
FDHNDKKLSINSAARNI [PRE7] | 2.72 ± 0.059 | 2.47 ± 0.059 | 2.4 ± 0.055 | 2.83 ± 0.065
FDKVEVQVRSVMDPITS [DIS3] | 2.78 ± 0.07 | 2.8 ± 0.066 | 3.21 ± 0.053 | 3.04 ± 0.064
FDLVRNIVKQNEGIDLD [SMC2] | 3.11 ± 0.13 | 3.51 ± 0.12 | 3.24 ± 0.081 | 3.45 ± 0.1
FDQAGKKVSRRNARATR [RPL13A] | 2.51 ± 0.073 | 3.36 ± 0.057 | 1.92 ± 0.12 | 2.34 ± 0.067
FDSLRNFIVHSPMLKRI [GRR1] | 2.89 ± 0.084 | 2.47 ± 0.079 | 2.8 ± 0.074 | 2.64 ± 0.076
FEEDSDLALPPPPPPPP [PRP8] | 3.08 ± 0.063 | 3.25 ± 0.066 | 3.27 ± 0.072 | 3.23 ± 0.062
FEIIFPPTDTNVEESVS [POP5] | 2.91 ± 0.091 | 2.68 ± 0.085 | 2.47 ± 0.071 | 3.09 ± 0.12
FEKKELQEKFLNQIATL [IRR1] | 1.08 ± 0.056 | 1.23 ± 0.057 | 1.15 ± 0.1 | 1.04 ± 0.062
FEKVGSHLYKARLDGHD [RPN14] | 2.92 ± 0.26 | 3.51 ± 0.19 |  | 3.31 ± 0.14
FELVSDLSYIEFLFESL [ECM29] | 2.88 ± 0.067 | 2.74 ± 0.077 | 2.97 ± 0.062 | 2.87 ± 0.049

Sequence | protein stability index (doa10∆) | protein stability index (pdr5∆) | protein stability index (san1∆) | protein stability index (ubr1∆)
FESLPLKSAENSGKQQY [SWP82] | 3.17 ± 0.063 | 3.3 ± 0.057 | 3.01 ± 0.055 | 3.2 ± 0.056
FFDGSASSTPIPVLGKP [YOR098C/NUP1] | 2.6 ± 0.044 | 2.94 ± 0.04 | 2.72 ± 0.036 | 2.67 ± 0.026
FFKPLDYITEAVFKIVL [SNU114] | 2.06 ± 0.047 | 1.95 ± 0.055 | 1.47 ± 0.073 | 1.88 ± 0.035
FFYLRISKKLQFSYLSS [PCI8] | 1.22 ± 0.076 | 1.24 ± 0.059 | 1.24 ± 0.11 | 1.33 ± 0.044
FGFSSSGTAATGAASNQ [YOR098C/NUP1] | 2.69 ± 0.11 | 3.41 ± 0.13 |  | 3.31 ± 0.07
FGKLLQAYQFLNTFGSK [ITC1] | 1.5 ± 0.064 | 1.26 ± 0.073 | 1.19 ± 0.12 | 1.31 ± 0.094
FGNIQKVVNFWLLHNGF [RPO21] | 2.26 ± 0.18 | 1.83 ± 0.099 | 1.99 ± 0.19 | 1.41 ± 0.073
FGNSLICEDPETAKKIT [SMC2] | 2.82 ± 0.1 | 2.74 ± 0.084 | 2.62 ± 0.24 | 2.91 ± 0.075
FGNTSTSSAPAQNQGMF [YGL172W/NUP49] | 3.3 ± 0.15 | 3.4 ± 0.24 |  | 
FGPIKVELPTKETVEIG [FAS1] | 3.01 ± 0.084 | 3.28 ± 0.07 | 3.23 ± 0.067 | 3.02 ± 0.066
FGVPNSSKNETSKPVFS [YLR335W/NUP2] | 2.32 ± 0.035 | 2.97 ± 0.13 | 2.55 ± 0.13 | 3.15 ± 0.068
FHKYRLKRNSWPKTRGV [RPL2A] | 2.44 ± 0.099 | 2.71 ± 0.1 | 2.83 ± 0.12 | 2.31 ± 0.091
FHNAVFNSFRRFKSQFL [QCR8] | 2.31 ± 0.068 | 1.52 ± 0.046 | 1.6 ± 0.088 | 1.54 ± 0.046
FHSEISPDSTVNRSVVV [YAR002W/NUP60] | 1.75 ± 0.11 | 1.76 ± 0.052 | 1.76 ± 0.13 | 2.16 ± 0.059
FICTTFRTDMLQVADKF [SMC3] | 1.38 ± 0.086 | 2.31 ± 0.12 | 1.6 ± 0.089 | 1.67 ± 0.075
FILELEHKTPELISFKE [YIL149C/MLP2] | 2.86 ± 0.081 | 3.05 ± 0.086 | 2.96 ± 0.1 | 3.29 ± 0.086
FIPNKQLNCVIDRVNGI [RPN7] | 2.47 ± 0.13 | 2.75 ± 0.21 | 2.73 ± 0.18 | 3.08 ± 0.18
FIVSGTASDQLFGMCES [PUP3] | 2.41 ± 0.046 | 2.46 ± 0.045 | 2.63 ± 0.056 | 2.53 ± 0.039
FKGTDFVHSVKKFLRVR [SRB4] | 2.66 ± 0.077 | 2.64 ± 0.066 | 2.83 ± 0.058 | 2.87 ± 0.054
FKKLNSKNMSKSPSLTA [YMR153W/NUP53] | 2.21 ± 0.065 | 2.38 ± 0.048 | 2.19 ± 0.067 | 2.13 ± 0.071
FKMNEIVPLHSPFLMGH [SEC65] | 2.71 ± 0.067 | 2.59 ± 0.072 | 2.59 ± 0.082 | 2.62 ± 0.057
FKNMGNTCYLNATLQAL [UBP6] | 1.8 ± 0.083 | 1.92 ± 0.083 | 1.55 ± 0.12 | 1.83 ± 0.071
FKQIKSADCELLGIDAT [RPO31] | 1.62 ± 0.083 | 1.8 ± 0.089 | 1.42 ± 0.16 | 2.08 ± 0.053
FKSLIDEDLLDTQTFSV [YGL172W/NUP49] | 3.17 ± 0.17 | 3.05 ± 0.25 |  | 3.76 ± 0.26
